# Target: His-tagged human Rac1 recombinant protein (human, UniProt P63000 1-192)
# Assay: MALDI MS, linear mode acquisition
row,Binder,binding result
1,HRKKRRQRRRQFPGEYIPTVF [NipR2 (nitration inhibitory peptide for the Rho GTPases 2)],binds
2,HRKKRRQRRRQFPGEFIPTVF [NipR2F (phenylalanine-substituted control peptide)],binds

# Source: paper PMC7664366 (Redox Biology, 2020)
